One substance from article doi:10.1101/870667 can be followed below.

The target of assay [1] is MLL1 core complex (MWRAD2 holo-complex) (human) (UniProt Q03164). The assay is described as follows: AUC.
For assay [2] the target is unchanged. As to the kind of experiment: AUC. The source holds these as a separate data set.

Like-named read-outs stand apart in the source and are kept apart here.

On to “MLL1 core complex (MWRAD2 holo-complex) (from UniProt Q03164;P61964;Q15291;Q9UBL3-3;Q9C005)”, for which the stoichiometry N (in general, the number of molecules, sites or subunits per partner or assembly) in assay [1] stood at 2; in assay [2] it was 18.
